Experimental data published in patent publication US20200002439A1 (GENSUN BIOPHARMA, published 2020).

How the values were obtained:
human TGFβ1 = human TGFβ1 (human, UniProt P01137 279-390); assay: cell-based or functional assay
[1] = molecular target: T1, recombinant human VEGF 165 (human, UniProt P15692-4 27-191); assay: blocking ELISA: VEGF-165 coated on the plate, binding of recombinant human VEGFR-2-hu IgG1-His Tag is blocked
T1 construct: Bought protein
Method: Briefly, 0.5 ug/ml of recombinant human VEGF-165 (R&D #293-VE-050/CF) in carbonate-bicarbonate buffer was coated to the wells in a 96-well assay plate and incubated overnight at 4° C. The wells were then washed 3 times with 0.05% Tween 20 in PBS (wash buffer), blocked with 1% BSA in PBS for 1 hour at room temperature, and washed 3 times with wash buffer. 50 μl 5-fold serially diluted antibodies were then added to wells in the plate and incubated for 30 minutes at room temperature. […] 100 μl anti-His tag HRP (1:10,000) was then added and the plates were incubated for 40 mins at room temperature and washed 3 times with wash buffer.

[2] = molecular target: T2, human PD-1 on transfected CHO-K1 cells (human, UniProt Q15116 25-288); assay: cell-based blocking assay, flow cytometry: binding of FITC labeled human PD-L1-Fc to human PD-1 transfected CHO-K1 cells is blocked
T2 construct: also called Human PD-1 transfected CHO-K1 cells
T2 sequence (Q15116 25-288 limits assumed): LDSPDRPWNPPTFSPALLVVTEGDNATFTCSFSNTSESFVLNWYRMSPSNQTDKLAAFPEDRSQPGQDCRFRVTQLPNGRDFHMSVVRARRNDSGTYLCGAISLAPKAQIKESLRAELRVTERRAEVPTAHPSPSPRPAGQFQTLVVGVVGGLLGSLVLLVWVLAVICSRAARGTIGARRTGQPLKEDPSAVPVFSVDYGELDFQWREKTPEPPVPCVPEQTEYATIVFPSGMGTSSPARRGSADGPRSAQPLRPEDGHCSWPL
Method: Incubate for 15 mins before analysis with the iQue intellicyt system.

[3] = molecular target: T1, recombinant human VEGF 165; assay: blocking ELISA: VEGF 165 coated on the plate, binding of recombinant human VEGFR-2 is blocked
Method: (§1) In brief, 96-well assay plates were coated with 0.5 ug/ml of recombinant human VEGF 165 (R&D) in carbonate-bicarbonate buffer (pH 9.6) at 4° C. overnight followed by blocking with 1% BSA/PBS for 1 hour at room temperature. Serially diluted antibodies were then added to the plate and incubated for 30 minutes at room temperature. […] Followed by washing with Wash Buffer, goat anti-mouse IgG-HRP were added to the plate and incubated for 1 hour at room temperature. […] IC50 values were determined as the mid-point in the activity curve.

[4] = molecular target: T1, recombinant human VEGF 165; assay: as above; remark: listed apart in the source
Method: as §1

T1 sequence (P15692 other isoform, or with tags, fused parts or gaps limits assumed): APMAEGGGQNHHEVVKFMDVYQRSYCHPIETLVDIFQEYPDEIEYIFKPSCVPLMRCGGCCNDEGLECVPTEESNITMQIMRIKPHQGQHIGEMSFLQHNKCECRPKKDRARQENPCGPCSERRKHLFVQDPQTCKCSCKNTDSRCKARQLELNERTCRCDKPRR
Sequence of human TGFβ1 (P01137 279-390 limits assumed): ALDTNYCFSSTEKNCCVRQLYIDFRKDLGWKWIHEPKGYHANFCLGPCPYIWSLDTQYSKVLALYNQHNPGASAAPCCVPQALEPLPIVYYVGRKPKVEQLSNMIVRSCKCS

Binder	IC50; luciferase signal of TGFβ/SMAD SBE Reporter-HEK293 cells stimulated with human TGFβ1 (human TGFβ1) [nM]	IC50 [1] [nM]	IC50 [2] [nM]	IC50 [3] [nM]	IC50 [4] [nM]
TS-ZPB-3(2P17) (other) heavy: QVQLVQSGAEVKKPGASVKVSCKASGYTFTSYYIHWVRQAPGQGLEWMGWIFPGSGNSKYNENFKGRVTLTADTSTSTVYMELSSLRSEDTAVYYCASETYDYGDYWGQGTLVTVSSASTKGPSVFPLAPCSRSTSESTAALGCLVKDYFPEPVTVSWNSGALTSGVHTFPAVLQSSGLYSLSSVVTVPSSSLGTKTYTCNVDHKPSNTKVDKRVESKYGPPCPPCPAPEFLGGPSVFLFPPKPKDTLMISRTPEVTCVVVDVSQEDPEVQFNWYVDGVEVHNAKTKPREEQFNSTYRVVSVLTVLHQDWLNGKEYKCKVSNKGLPSSIEKTISKAKGQPREPQVYTLPPSQEEMIPPHVQKSVNNDMIVTDNNGAVKFPQLCKFCDVRFSTCDNQKSCMSNCSITSICEKPQEVCVAVWRKNDENITLETVCHDPKLPYHDFILEDAASPKCIMKEKKKPGETFFMCSCSSDECNDNIIFSEEYNTSNPDTKNQVSLTCLVKGFYPSDIAVEWESNGQPENNYKTTPPVLDSDGSFFLYSRLTVDKSRWQEGNVFSCSVMHEALHNHYTQKSLSLSLGKGGGGSGGGGSGGGGSSDTGRPFVEMYSEIPEIIHMTEGRELVIPCRVTSPNITVTLKKFPLDTLIPDGKRIIWDSRKGFIISNATYKEIGLLTCEATVNGHLYKTNYLTHRQTNTIIDVVLSPSHGIELSVGEKLVLNCTARTELNVGIDFNWEYPSSKHQHKKLVNRDLKTQSGSEMKKFLSTLTIDGVTRSDQGLYTCAASSGLMTKKNSTFVRVHEK light: DIQMTQSPSFLSASVGDRVTITCKASQNVGTNVAWYQQKPGKAPKALIYSASYRYSGVPSRFSGSGSGTEFTLTISSLQPEDFATYYCQQYYSYPYTFGQGTKLEIKRTVAAPSVFIFPPSDEQLKSGTASVVCLLNNFYPREAKVQWKVDNALQSGNSQESVTEQDSKDSTYSLSSTLTLSKADYEKHKVYACEVTHQGLSSPVTKSFNRGEC	2.95	7.71	2.39	–	–
aflibercept peptide (positive control) (other) SDTGRPFVEMYSEIPEIIHMTEGRELVIPCRVTSPNITVTLKKFPLDTLIPDGKRIIWDSRKGFIISNATYKEIGLLTCEATVNGHLYKTNYLTHRQTNTIIDVVLSPSHGIELSVGEKLVLNCTARTELNVGIDFNWEYPSSKHQHKKLVNRDLKTQSGSEMKKFLSTLTIDGVTRSDQGLYTCAASSGLMTKKNSTFVRVHEK	–	–	–	0.2	0.29
